Source: paper PMC2970552, “Structural Studies of the Tandem Tudor Domains of Fragile X Mental Retardation Related Proteins FXR1 and FXR2” (PLoS ONE, 2010)
One block for each molecule: values may come before it. Where no end group is shown, it is not given here. Me3 = trimethyl-lysine (Kme3); Me2 = dimethyl-lysine (Kme2)

Key:
FXR2 Tudor domains = FXR2 Tudor domains (Homo sapiens, UniProt P51116); experiment: Fluorescence polarization binding of histone peptides to FXR2 tandem Tudor domains; conditions: bound printed in mM in the cell, fluoresceinated peptide 100 nM, 20 mM Tris-Cl pH 8.0, 50 mM NaCl, 1 mM DTT, 30 min room temperature
FXR1 Tudor domains = FXR1 Tudor domains (Homo sapiens, UniProt P51114); experiment: Fluorescence polarization binding of histone peptides to FXR1 tandem Tudor domains; conditions: bound printed in mM in the cell, fluoresceinated peptide 100 nM, 20 mM Tris-Cl pH 8.0, 50 mM NaCl, 1 mM DTT, 30 min room temperature
[1] = target: T1, FXR1 tandem Tudor domains (amino acids 2 to 132 of Fragile X Mental Retardation Syndrome-related Protein 1) (UniProt P51114 2-132); experiment: fluorescence polarisation; fluoresceinated peptide at 100 nM; FXR1 (stock 1.03 mM) or FXR2 (stock 2.4 mM) in serial twofold dilutions from 1/2 to 1/1024; 20 mM Tris-Cl pH 8.0, 50 mM NaCl, 1 mM DTT; room temperature, 30 minutes; conditions: both partners purified
T1 construct: Fragile X Mental Retardation Syndrome-related Protein 1 (FXR1), amino acids 2 to 132, tandem Tudor domains; residues 4 to 122 seen in the crystal structure; Cloned in pET-28a-MHL as His6-TEV-FXR1; The methods describe expression in minimal media with selenomethionine; also called FXR1 Tudor domains; NLS of FXR1; source: E. coli BL21 derivative with pRARE, purified (Ni-NTA, Superdex 75); not …
T1 sequence (P51114 2-132): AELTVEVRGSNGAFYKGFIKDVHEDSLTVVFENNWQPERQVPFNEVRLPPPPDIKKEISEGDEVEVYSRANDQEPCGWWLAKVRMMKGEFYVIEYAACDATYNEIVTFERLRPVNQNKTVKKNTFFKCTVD

[2] = target: T2, FXR2 tandem Tudor domains (amino acids 14 to 137 of Fragile X Mental Retardation Syndrome-related Protein 2) (UniProt P51116 14-137); experiment: as above; conditions: both partners purified
T2 construct: Fragile X Mental Retardation Syndrome-related Protein 2 (FXR2), amino acids 14 to 137, tandem Tudor domains; residues 13 to 136 reported for the crystal structure; Cloned in pET-28a-MHL as His6-TEV-FXR2; the purification tag was not removed from FXR2; The methods describe expression in minimal media with selenomethionine; also called FXR2 Tudor domain; NLS of FXR2; source: E. coli BL21 derivative …
T2 sequence (P51116 14-137): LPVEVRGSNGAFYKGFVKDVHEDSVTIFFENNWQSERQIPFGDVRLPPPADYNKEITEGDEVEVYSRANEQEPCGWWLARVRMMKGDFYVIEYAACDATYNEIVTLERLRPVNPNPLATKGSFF

- Kd (FXR2 Tudor domains): > 1 mM
Molecule: C[C@H](N)C(=O)N[C@@H](CCCNC(=N)N)C(=O)N[C@H](C(=O)N[C@@H](CCCC[N+](C)(C)C)C(=O)N[C@@H](CCC(N)=O)C(=O)N[C@H](C(=O)N[C@@H](C)C(=O)N[C@@H](CCCNC(=N)N)C(=O)N[C@@H](CCCCN)C(=O)N[C@@H](CO)C(=O)N[C@H](C(=O)O)[C@@H](C)O)[C@@H](C)O)[C@@H](C)O [H3K4me3]

- Kd (FXR1 Tudor domains): > 1 mM
Molecule: CC(C)C[C@H](NC(=O)[C@@H](NC(=O)[C@H](CCCCN)NC(=O)[C@H](CCCNC(=N)N)NC(=O)[C@H](Cc1c[nH]cn1)NC(=O)[C@H](CCCNC(=N)N)NC(=O)[C@H](CCCCN)NC(=O)[C@H](C)NC(=O)CNC(=O)CN)C(C)C)C(=O)N[C@@H](CCCNC(=N)N)C(=O)N[C@@H](CC(=O)O)C(=O)N[C@@H](CC(N)=O)C(=O)O [H4K20]

- Kd [1]: 660 ± 121 µM
B1: H3K4me3 peptide (peptide)
peptide: ARTK(Me3)QTARKST
modifications: also: fluorescein, position not given here
notes: histone H3 tail peptide, K4 trimethylated; source: synthetic peptide (Tufts University Core Services)

- Kd [2]: 448 ± 19 µM
- Kd [1]: 692 ± 113 µM
B2: H4K20me3 peptide, fluoresceinated (peptide)
peptide: GGAKRHRK(Me3)VLRD
modifications: also: fluorescein, position not given here
notes: histone H4 tail peptide, K20 trimethylated; source: synthetic peptide (Tufts University Core Services)

- Kd [2]: 1060 ± 63 µM
B3: H4K20 peptide (unmethylated histone H4 peptide) (peptide)
peptide: GGAKRHRKVLRDN
modifications: also: fluorescein, position not given here
notes: histone H4 tail peptide around K20, unmethylated; also called H4K20Me0; source: synthetic peptide (Tufts University Core Services)

- Kd [2]: 633 ± 30 µM
B4: H4K20me2 peptide (peptide)
peptide: GGAKRHRK(Me2)VLRD
notes: histone H4 tail peptide, K20 dimethylated; source: synthetic peptide (Tufts University Core Services)
